Consider four sequences from patent US20250049935.

In one data set the target is DNase I (UniProt P00639). The data set can be described thus: cleavage_in_vitro. The note with it: 10 mM Tris-HCl pH 7.5, 2.5 mM MgCl2, 0.5 mM CaCl2, 100 nM DNA, 0.6 unit/mL.
The target of data set [1] is thrombin (in C57BL/6 mouse plasma) (Mus musculus) (UniProt P19221+P19221). Kind of data set: inhibition. Particulars: two HD1 aptamers flanking a poly(serinol phosphodiester) backbone of 30 amine-serinol units (X), grafted with 10 kDa PEG side chains; in vivo i.v. 15 nmol in C57BL/6 mice; also 3-fold PT; neutralized by LNA antidote.
In data set [2] the target is thrombin (in pooled normal plasma) (Homo sapiens) (UniProt P00734+P00734). Kind of data set: inhibition. Particulars: two HD1 aptamers flanking a poly(serinol phosphodiester) backbone of 30 amine-serinol units (X), grafted with 10 kDa PEG side chains; 5 uM in human plasma; almost three-fold longer clotting; reversed by LNA antidote.
Data set [3] deals with alpha thrombin (Homo sapiens) (UniProt P00734+P00734). The data set can be described thus: MST. Particulars: two HD1 aptamers flanking a poly(serinol phosphodiester) backbone of 30 amine-serinol units (X), grafted with 10 kDa PEG side chains; 20 mM HEPES pH 7.4, 150 mM NaCl, 2 mM CaCl2, 0.05% Tween; 10 nM thrombin.

Chain of DNase I (P00639 23-282): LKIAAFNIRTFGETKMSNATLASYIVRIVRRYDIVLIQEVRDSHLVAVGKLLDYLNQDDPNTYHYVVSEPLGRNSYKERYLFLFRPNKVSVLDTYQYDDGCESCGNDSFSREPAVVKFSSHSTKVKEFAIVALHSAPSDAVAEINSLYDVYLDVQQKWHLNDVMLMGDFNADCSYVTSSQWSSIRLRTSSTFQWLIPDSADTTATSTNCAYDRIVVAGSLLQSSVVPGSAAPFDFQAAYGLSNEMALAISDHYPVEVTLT

Sequence “NNNNNNNNNNNNNNNTTTTTTTTTTTTTTT / AAAAAAAAAAAAAAA [Doubler PSP pacDNA:dA15 duplex]” gave an activity with DNase I (symmetric doubler with two 15-unit poly(serinol phosphodiester) arms grafted with 10 kDa PEG) of 38.1 min. In the case of “GGTTGGTGTGGTTGGTTTTTNNNNNNNNNNNNNNNNNNNNNNNNNNNNNNTTTTTGGTTGGTGTGGTTGG [PSP pacHD1]”, in data set [1], the activity (fold aPTT vs blank) was 5. In data set [2], this sequence registered an activity (fold aPTT vs vehicle) of 3. Further, in data set [3], the Kd was determined as 6.9 nM.

As to “TTTTTTTTTTTTTTT (double strand) [dT15:dA15 duplex]”, the activity in the data set with DNase I is 13.9 min. Sequence “TTTTTTTTTTTTTTTNNNNNNNNNNNNNNNNNNNNNNNNNNNNNNTTTTTTTTTTTTTTT / AAAAAAAAAAAAAAA [PSP pacDNA:dA15 duplex]” returned an activity with DNase I (poly(serinol phosphodiester) backbone of 30 units grafted with 10 kDa PEG) of 32.2 min.

In general, Kd refers to the free concentration of one partner at which half of the binding sites on the other are occupied at equilibrium, for simple one-to-one binding. Lower therefore signals tighter binding.
